Experimental data from article PMC8907193, “The YΦ motif defines the structure-activity relationships of human 20S proteasome activators” (Nature Communications, 2022).
Where two headings read alike, the source gives them in different places.

Legend:
[1] = target: human 20S proteasome (human) (UniProt P60900)
[2] = target: biotinylated human 20S proteasome (human) (UniProt P60900); assay: BLI

| Substance | EC50 of stimulation of h20S activity [1] [nM] | Kd [2] [nM] | koff [2] [s⁻¹] | other results |
| --- | --- | --- | --- | --- |
| PA26^AY | 8.3 |  |  |  |
| PA26^AY (from UniProt Q9U8G2) |  | 0.28 | 0.0004 |  |
| PA26^E102A (disabled-loop mutant) (from UniProt Q9U8G2) |  |  |  | Kd ([2]; natural protein): > 100 nM |
| PA26^YA | > 3000 |  |  | stimulation of h20S activity, loss against PA26^YY [1]: 80 % reduction |
| PA26^YA (from UniProt Q9U8G2) |  | 36 | 0.011 |  |
